Source: US20050271676A1, “Inducing cellular immune responses to human immunodeficiency virus-1 using peptide and nucleic acid compositions” (Epimmune Inc., priority 1993, published 2005)
No end group written: not given here.

Columns and labels:
[1] = molecular target: HLA-A*1101 (Homo sapiens, UniProt P04439, A114D/D185E/E176A/F33Y/L180Q/S129P/T187R); assay: purified HLA class I binding assay, A*1101
[2] = molecular target: T1, HLA-A*0301 (Homo sapiens, UniProt P04439); assay: purified HLA class I binding assay, A*0301; conditions: for A*0301 binding information: binding value
T1 construct: endogenous in cells; host or cells: GM3107

[3] = molecular target: HLA-A*3101 (Homo sapiens, UniProt P04439, A270S/D185E/E176V/E277Q/F33T/G231S/G80R/H175R/I121M/I218V/I322F/K168Q/L300P/L318F/M331R/P217A/Q94H/R138Q/T323A/T345S/T97I/V358M); assay: purified HLA class I binding assay, A*3101; conditions: for A*3101 binding information: binding value
[4] = molecular target: HLA-A*6801 (Homo sapiens, UniProt P04439, A269V/D185E/E176V/E277Q/E87N/F33Y/G231S/I121M/I166T/I218V/L180W/L300P/L318F/N151K/P208A/P217A/Q86R/R169H/T345S); assay: purified HLA class I binding assay, A*6801; conditions: binding value
[5] = molecular target: HLA-A*2402 (Homo sapiens, UniProt P04439, D101N/D140Y/D185E/E176V/E190D/F33S/G103R/G107R/I119L/I121M/I306V/K335N/L105A/L180Q/L300P/N151K/N90K/Q86E/Q94H/R106L/R138H/R89G/T104I/T345S/V100E/W191G/Y123F); assay: purified HLA class I binding assay, A*2402
[6] = molecular target: T2, HLA-DRB1*0802 (DR8w2) (Homo sapiens, UniProt P01903+P01911, A100R/A103L/A169T/F76Y/H45Y/I96F/K41T/L162R/M171V/P40S/Q125H/Q178H/Q39Y/Q99D/R218S/R42G/S66Y/V115G/W38E); assay: biochemical; assay type: binding
T2 construct: endogenous in cells

[7] = molecular target: T3, HLA-DRB1*0701 (DR7) (Homo sapiens, UniProt P01903+P01911, A100R/A102G/A103Q/D57E/D86V/E43K/F76Y/K127E/L162R/M171V/P40G/Q125H/Q99D/R33Q/R42Y/R54Q/S133A/S66F/T210M/V115G/Y107V/Y59L/Y89S); assay: biochemical; assay type: binding
T3 construct: endogenous in cells; host or cells: Pitout

[8] = molecular target: T4, HLA-DRB1*0901 (DR9) (Homo sapiens, UniProt P01903+P01911, A100R/A103E/D57H/D86V/F55Y/F60I/F76Y/I96F/K127E/L162R/M171V/P40D/Q125H/Q99R/R33Q/R42F/S133A/S66N/T210M/V115G/W38K/Y107V/Y59G/Y89S); assay: biochemical; assay type: binding
T4 construct: endogenous in cells

[9] = molecular target: HLA-DRB1*1302 (DR6w19) (Homo sapiens, UniProt P01903+P01911, A100E/A169T/K41T/L162R/M171V/P40S/Q125H/Q178H/Q39Y/Q99D/R42S/S66N/T262R/V115G/W38E/Y61H); assay: purified HLA class II binding assay, DRB1*1302 (DR6w19); conditions: Table XXb, HIV DR 3a motif peptides
[10] = molecular target: HLA-A*3301 (Homo sapiens, UniProt P04439, A270S/D185E/E176V/E277Q/E87N/F33T/G231S/H175R/I121M/I218V/I322F/K168Q/K210R/L300P/L318F/M331R/P217A/Q86R/Q94H/R138Q/T323A/T345S/T97I/V358M/Y195H); assay: purified HLA class I binding assay, A*3301
[11] = molecular target: HLA-A*0201 (Homo sapiens, UniProt P04439, D140Y/D185E/D98H/E176V/E277Q/G131W/G231S/I119V/I121R/I166T/I218V/L300P/L318F/N151K/N90K/P208A/P217A/Q86G/Q94H/R138H/R169H/T345S); assay: purified HLA class I binding assay, A*0201; conditions: HIV A02 super motif peptides, Table VIII; unit not given
[12] = molecular target: T5, HLA-DRB1*0401 (DR4w4) (Homo sapiens, UniProt P01903+P01911, A100K/A169T/F76Y/I96L/K127E/L162R/M171V/N62H/P40V/Q125Y/R42H/S133A/S149N/S66Y/V115G/V209L/W38E); assay: purified HLA class II binding assay, DRB1*0401 (DR4w4)
T5 construct: endogenous in cells; host or cells: Preiss

[13] = molecular target: T6, HLA-DRB1*1101 (DR5w11) (Homo sapiens, UniProt P01903+P01911, A100R/A169T/A87E/I96F/K41T/L162R/M171V/P40S/Q125H/Q178H/Q39Y/Q99D/R42S/S66Y/T262R/V115G/W38E); assay: biochemical; assay type: binding
T6 construct: endogenous in cells

[14] = molecular target: T7, HLA-DRB5*0101 (DR2w2β2) (Homo sapiens, UniProt P01903+Q30154); assay: biochemical; assay type: binding
T7 construct: expressed in transfected cells

[15] = molecular target: T8, HLA-DRB1*0301 (DR3) (Homo sapiens, UniProt P01903+P01911, A100K/A102G/A103R/A169T/F55Y/I96L/K41T/L162R/M171V/P40S/Q125H/Q178H/Q39Y/R42S/S66N/T106N/T262R/W38E/Y61H); assay: purified HLA class II binding assay, DRB1*0301 (DR3), pH 4.5; conditions: Table XXb, HIV DR 3a motif peptides
T8 construct: endogenous in cells; host or cells: MAT

[16] = Table IX, HIV A03 super motif peptides, binding value, unit not given
[17] = Table XVII, HIV A11 motif peptides, binding value A*1101, unit not given
[18] = Table IX, HIV A03 super motif peptides, unit not given
[19] = HIV A24 supermotif peptides, Table X, A*2401, unit not given
[20] = HIV A03 supermotif peptides, no unit given
[21] = HIV A24 supermotif peptides, purified HLA molecule, no unit printed in Table X

T5 sequence (P01903 26-254 partner, other chains not shown): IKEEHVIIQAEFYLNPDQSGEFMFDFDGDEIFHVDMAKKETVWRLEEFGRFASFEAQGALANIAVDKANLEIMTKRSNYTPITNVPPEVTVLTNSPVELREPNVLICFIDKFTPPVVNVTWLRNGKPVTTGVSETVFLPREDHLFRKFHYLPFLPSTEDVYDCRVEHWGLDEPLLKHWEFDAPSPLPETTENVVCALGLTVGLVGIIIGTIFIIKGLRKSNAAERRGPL
T8 sequence (P01903 26-254 partner, other chains not shown): as above
T6 sequence (P01903 26-254, other chains not shown): as the sequence (P01903 26-254 partner, other chains not shown) above

## ASCDKCQLK
[1]; [16]
  A*1101 (binding information): 0.0140
[1]; [17]
  A*1101 (binding information): 0.0040
[2]; HIV POL-derived A03 motif peptides, binding value for purified HLA-A*0301, unit not given
  A0301 (HIV A03 Motif Peptides with Binding Information): 0.0027
[2]; [18]
  A*0301 binding information: 0.0027
[3]; [18]
  A*3101 binding information: 0.0020
[4]; [18]
  A*6801 binding information: 0.0001

## DIQIKELQK
[1]; [16]
  A*1101 (binding information): 0.0006
[2]; [18]
  A*0301 binding information: 0.0009
[3]; [18]
  A*3101 binding information: 0.0006
[4]; [18]
  A*6801 binding information: 0.0001

## FTTPDKKIIQK
[1]; [16]
  A*1101 (binding information): 0.0150
[1]; [17]
  A*1101 (binding information): 0.0150
[2]; [18]
  A*0301 binding information: 0.0002
[3]; [18]
  A*3101 binding information: 0.0010
[4]; [18]
  A*6801 binding information: 0.0273

## GIPHPAGLK
[1]; [16]
  A*1101 (binding information): 0.0650
[3]; [18]
  A*3101 binding information: 0.0007
[4]; [18]
  A*6801 binding information: 0.0110

## GYELIIPDKW
[5]; [19]
  A*2401 (binding information): 0.0001

## IKKEKVYLA
[6]
  DR8w2 binding information: −0.0015
[7]
  DR7 binding information: −0.0005
[8]
  DR9 binding information: 0.0011
[9]
  DR6w19 binding information: −0.0003

## IWQLDCTIIL
[5]; [19]
  A*2401 (binding information): 0.0095

## IYQEPIKNL
[5]; [19]
  A*2401 (binding information): 0.0520

## KIQNFRVYYR [1211.32]
[10]
  IC50: 341 nM
[3]
  IC50: 2.7 nM

## KLTEERWNK
[1]; HIV A03 supermotif peptides, binding value, no unit given
  A*1101 (binding information): 0.2700
[2]; [20]
  A*0301 binding information: 0.0130
[3]; [20]
  A*3101 binding information: 0.0680
[4]; [20]
  A*6801 binding information: 0.0002

## KMIGGIGGPI
[5]; HIV A24 motif peptides, purified HLA-A24 molecule, unit not given
  A*2401 (binding information): 0.0001

## NMVEQMIIEDI
[5]; [21]
  A*2401 (binding information): 0.0004
[11]
  A*0201 (binding information): 0.0001

## NMWQEVGKA
[5]; [21]
  A*2401 (binding information): 0.0001
[11]
  A*0201 (binding information): 0.0022

## NNLLRAIEAQQIILLQ
[7]
  DR7 binding: 0.0150
[12]; HIV DR super motif peptides, unit not given
  DR4w4 binding: 0.0150

## PPVVAKEIVASCDKC
[13]
  DR5w11 binding information: 0.0006
[14]
  DR2w2β2 binding information: −0.0021
[12]; Table XXb, HIV DR 3a motif peptides
  DR4w4 binding information: 0.0085
[15]
  DR3 binding information: −0.0130
